From US20250049972A1, “METHOD OF DETECTING PROSTATE CANCER IN A HUMAN SUBJECT USING A Cu 64 PSMA I&T INJECTION” (Curium US LLC, priority 2023, published 2025)

Experiments:
clinical = details: human, in vivo, total radioactivity
Method: (§1) Radiation dosimetry estimates for normal organs were determined for copper Cu-64 PSMA I&T based on biodistribution collected from the 12 patients enrolled in the trial. Whole-body PET/CT images acquired at 1 hour (±15 minutes), 4 hours (±30 minutes), and 24 hours (±2.0 hours) post injection were used together with blood samples collected prior to and 1, 2, 4, and 24 hours post injection and total voided urine samples collected for 0 to 1-hour and 1 to 4-hour intervals post injection.
Percent injected activity as a function of time was determined for the quantified organs listed below.
First, calculating Activity Quantification in PET Images utilizing the following Equation One: […]
Use of this equation can calculate organ/tissue and whole body activity concentration levels.
Second, Normalization of PET Quantification utilizing a normalization factor to decay values using urine activity utilizing the following Equation Two:
A normalization factor can be determined and applied to the decay corrected % IA values by assuming 100% quantification of the total body activity at the first time point and assuming accurate urine activity assay according to Equation Two.

[1] = design: species or system human; details: in vivo
Method: as §1
This analysis was performed with the objective of estimation of radiation dosimetry of Cu-64 PSMA I&T based on bio-distribution determined using PET image data collected in twelve human subjects. […] The maximum deviation was 13%. Activities were normalized to 100% based on the first imaging time to prevent over or under estimation of absorbed dose.
Third, calculating Source Organ Time-Activity Bio-Kinetic Modeling using bio-distribution data for the listed organs utilizing the following Equation Three: […]
The bio-distribution data for the listed organs and remainder tissues in the study may be determined using the image quantification methodology described above. Organ and tissue data may be decay corrected to fit in a least squares sense using non-linear regression with sums of exponentials of the form shown in Equation Three.

[2] = Mean % Injected Dose, GI Total Contents
[3] = Mean % Injected Dose, Heart wall
[4] = Mean % Injected Dose, Lacrimal Glands
[5] = Mean % Injected Dose, Pituitary
[6] = Mean % Injected Dose, Red Marrow
[7] = Mean % Injected Dose, Salivary glands
[8] = Mean % Injected Dose, Stomach Wall
[9] = Mean % Injected Dose, Whole Body

**Q.** Which results are given for `O=C(O)CC[C@H](NC(=O)N[C@@H](CCCCNC(=O)CCCCCCC(=O)NCCCC[C@@H](NC(=O)[C@@H](Cc1ccccc1)NC(=O)[C@@H](Cc1ccc(O)c(I)c1)NC(=O)CC[C@H](C(=O)O)N1CCN(CC(=O)O)CCN(CC(=O)O)CCN(CC(=O)O)CC1)C(=O)O)C(=O)O)C(=O)O` [Cu-64 PSMA I&T, 64 Cu-(3S, 7S, 26R, 29R, 32R, 37R)-29-benzyl-32(4-hydroxy-3-iodobenzyl)-5, 13, 20, 28, 31, 34-hexaoxo-37-(4,7,10-tris(carboxymethyl)-1,4,7, 10-tetraazacyclododecan-1-yl)-4,6, 12, 21, 27, 30, 33-heptaazaheptatriacontane-1,3,7, 26, 37-pentacarboxylic acid, metal not drawn]?
**A.** tissue uptake dose at 1 h (clinical; Mean % Injected Dose, Blood): 5.8 %ID; tissue uptake dose at 2 h (clinical; Mean % Injected Dose, Blood): 4.2 %ID; tissue uptake dose at 4 h (clinical; Mean % Injected Dose, Blood): 3.2 %ID; tissue uptake dose at 24 h (clinical; Mean % Injected Dose, Blood): 4.4 %ID; tissue uptake dose at 1 h (clinical; [2]): 10 %ID; tissue uptake dose at 4 h (clinical; [2]): 10 %ID; tissue uptake dose at 24 h (clinical; [2]): 12 %ID; tissue uptake dose at 1 h (clinical; [3]): 1.2 %ID; tissue uptake dose at 4 h (clinical; [3]): 0.84 %ID; tissue uptake dose at 24 h (clinical; [3]): 0.96 %ID; tissue uptake dose at 1 h (clinical; Mean % Injected Dose, Kidneys): 8.6 %ID; tissue uptake dose at 4 h (clinical; Mean % Injected Dose, Kidneys): 5 %ID; tissue uptake dose at 24 h (clinical; Mean % Injected Dose, Kidneys): 2.1 %ID; tissue uptake dose at 1 h (clinical; [4]): 0.023 %ID; tissue uptake dose at 4 h (clinical; [4]): 0.024 %ID; tissue uptake dose at 24 h (clinical; [4]): 0.015 %ID; tissue uptake dose at 1 h (clinical; Mean % Injected Dose, Liver): 19 %ID; tissue uptake dose at 4 h (clinical; Mean % Injected Dose, Liver): 25 %ID; tissue uptake dose at 24 h (clinical; Mean % Injected Dose, Liver): 30 %ID; tissue uptake dose at 1 h (clinical; Mean % Injected Dose, Pancreas): 0.35 %ID; tissue uptake dose at 4 h (clinical; Mean % Injected Dose, Pancreas): 0.39 %ID; tissue uptake dose at 24 h (clinical; Mean % Injected Dose, Pancreas): 0.28 %ID; tissue uptake dose at 1 h (clinical; [5]): 0.0021 %ID; tissue uptake dose at 4 h (clinical; [5]): 0.0019 %ID; tissue uptake dose at 24 h (clinical; [5]): 0.0017 %ID; tissue uptake dose at 1 h (clinical; Mean % Injected Dose, Prostate): 0.036 %ID; tissue uptake dose at 4 h (clinical; Mean % Injected Dose, Prostate): 0.031 %ID; tissue uptake dose at 24 h (clinical; Mean % Injected Dose, Prostate): 0.021 %ID; tissue uptake dose at 1 h (clinical; [6]): 1.7 %ID; tissue uptake dose at 4 h (clinical; [6]): 1.4 %ID; tissue uptake dose at 24 h (clinical; [6]): 1.5 %ID; tissue uptake dose at 24 h (clinical; Mean % Injected Dose, Remainder): 52 %ID; tissue uptake dose at 1 h (clinical; [7]): 1.1 %ID; tissue uptake dose at 4 h (clinical; [7]): 0.95 %ID; tissue uptake dose at 24 h (clinical; [7]): 0.4 %ID; tissue uptake dose at 1 h (clinical; Mean % Injected Dose, Spleen): 1.5 %ID; tissue uptake dose at 4 h (clinical; Mean % Injected Dose, Spleen): 0.54 %ID; tissue uptake dose at 24 h (clinical; Mean % Injected Dose, Spleen): 0.29 %ID; tissue uptake dose at 1 h (clinical; [8]): 0.52 %ID; tissue uptake dose at 4 h (clinical; [8]): 0.51 %ID; tissue uptake dose at 24 h (clinical; [8]): 0.42 %ID; tissue uptake dose at 1 h (clinical; Mean % Injected Dose, Testes): 0.11 %ID; tissue uptake dose at 4 h (clinical; Mean % Injected Dose, Testes): 0.1 %ID; tissue uptake dose at 24 h (clinical; Mean % Injected Dose, Testes): 0.065 %ID; tissue uptake dose at 1 h (clinical; Mean % Injected Dose, Thyroid): 0.031 %ID; tissue uptake dose at 4 h (clinical; Mean % Injected Dose, Thyroid): 0.019 %ID; tissue uptake dose at 24 h (clinical; Mean % Injected Dose, Thyroid): 0.016 %ID; tissue uptake dose at 1 h (clinical; [9]): 96 %ID; tissue uptake dose at 4 h (clinical; [9]): 87 %ID; tissue uptake dose at 24 h (clinical; [9]): 81 %ID; total activity recovery (whole-body PET plus urine), % of injected activity at 1 hour (clinical; sum of unnormalized activity recovery from whole body PET quantification and urinary excretion, % of the injected activity): 101%; Normalized Number of Disintegrations, Mean, Remainder ([1]; human): 6.9 h; Dose Estimate, Mean, Adrenals [1]: 0.045 mGy/MBq; Dose Estimate, Mean, Brain [1]: 0.011 mGy/MBq; Dose Estimate, Mean, Esophagus [1]: 0.020 mGy/MBq; Dose Estimate, Mean, Eyes [1]: 0.010 mGy/MBq; Dose Estimate, Mean, Gallbladder Wall [1]: 0.051 mGy/MBq; Dose Estimate, Mean, Heart Wall [1]: 0.055 mGy/MBq; Dose Estimate, Mean, Kidneys [1]: 0.19 mGy/MBq; Dose Estimate, Mean, Lacrimal Glands [1]: 0.16 mGy/MBq; Dose Estimate, Mean, Left colon [1]: 0.25 mGy/MBq; Dose Estimate, Mean, Liver [1]: 0.25 mGy/MBq; Dose Estimate, Mean, Lungs [1]: 0.018 mGy/MBq; Dose Estimate, Mean, Osteogenic Cells [1]: 0.018 mGy/MBq; Dose Estimate, Mean, Pancreas [1]: 0.054 mGy/MBq; Dose Estimate, Mean, Pituitary [1]: 0.037 mGy/MBq; Dose Estimate, Mean, Prostate [1]: 0.027 mGy/MBq; Dose Estimate, Mean, Rectum [1]: 0.15 mGy/MBq; Dose Estimate, Mean, Red Marrow [1]: 0.023 mGy/MBq; Dose Estimate, Mean, Right colon [1]: 0.22 mGy/MBq; Dose Estimate, Mean, Salivary Glands [1]: 0.12 mGy/MBq; Dose Estimate, Mean, Small Intestine [1]: 0.067 mGy/MBq; Dose Estimate, Mean, Spleen [1]: 0.048 mGy/MBq; Dose Estimate, Mean, Stomach Wall [1]: 0.063 mGy/MBq; Dose Estimate, Mean, Testes [1]: 0.035 mGy/MBq; Dose Estimate, Mean, Thymus [1]: 0.015 mGy/MBq; Dose Estimate, Mean, Thyroid [1]: 0.015 mGy/MBq; Dose Estimate, Mean, Total Body [1]: 0.022 mGy/MBq; Dose Estimate, Mean, Urinary Bladder Wall [1]: 0.074 mGy/MBq; Normalized Number of Disintegrations, Mean, Heart wall [1]: 0.17 h; Normalized Number of Disintegrations, Mean, Kidneys [1]: 0.69 h; Normalized Number of Disintegrations, Mean, Lacrimal Glands [1]: 0.0033 h; Normalized Number of Disintegrations, Mean, Liver [1]: 5.0 h; Normalized Number of Disintegrations, Mean, Pancreas [1]: 0.058 h; Normalized Number of Disintegrations, Mean, Pituitary [1]: 0.00033 h; Normalized Number of Disintegrations, Mean, Prostate [1]: 0.0047 h; Normalized Number of Disintegrations, Mean, Red Marrow [1]: 0.28 h; Normalized Number of Disintegrations, Mean, Salivary glands [1]: 0.12 h; Normalized Number of Disintegrations, Mean, Spleen [1]: 0.096 h; Normalized Number of Disintegrations, Mean, Stomach Wall [1]: 0.083 h; Normalized Number of Disintegrations, Mean, Testes [1]: 0.015 h; Normalized Number of Disintegrations, Mean, Thyroid [1]: 0.0035 h; Normalized Number of Disintegrations, Mean, Whole Body [1]: 15 h
